Molecular target: human CLDN18.1 (human) (UniProt P56856)
Experiment: flow cytometry on human CLDN18.1-HEK293 cells, antibody at 100 µg/mL

human CLDN18.1 (human), sequence (P56856 whole entry): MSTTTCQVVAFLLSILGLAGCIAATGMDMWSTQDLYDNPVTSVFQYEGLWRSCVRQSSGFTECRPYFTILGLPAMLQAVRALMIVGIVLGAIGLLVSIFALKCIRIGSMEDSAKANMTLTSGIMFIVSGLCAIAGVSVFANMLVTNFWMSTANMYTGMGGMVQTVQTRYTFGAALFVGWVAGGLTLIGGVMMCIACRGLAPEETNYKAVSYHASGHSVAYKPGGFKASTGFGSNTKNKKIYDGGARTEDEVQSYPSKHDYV

B1: humanized antibody NA7-S-H2 (Fc fusion, not shown: a dimerising Fc or GST)
chain: EVQLVESGGGLVQPGGSLRLSCAASGSFFRIVAMGWYRQAPGKGRELVATITRGGSTYYADSMKGRSTISRDNAKNTVYLQMNSLKPEDTAVYYCNVRVEVPFMQPNDYWGQGTLVTVSS
positive rate of cell binding: 5.5%

— US20240092891A1
